Reference: US9868789B2, “Synergistic combinations of OX40L antibodies for the treatment of GvHD” (Kymab Limited, priority 2015, dated 2018)

T1: CHO-S expressed hOX40L (Homo sapiens, UniProt P23510)
T1 construct: expressed in transfected cells
T1 sequence (P23510 1-183): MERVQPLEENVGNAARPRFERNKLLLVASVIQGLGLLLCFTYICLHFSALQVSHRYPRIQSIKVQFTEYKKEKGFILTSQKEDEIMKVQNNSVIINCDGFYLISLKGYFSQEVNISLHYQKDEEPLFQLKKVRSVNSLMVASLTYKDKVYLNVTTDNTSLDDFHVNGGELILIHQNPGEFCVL

B1: 10A07 (human): fully human anti-human OX40L antibody reformatted to IgG4-PE; VH SEQ ID No:2, VL SEQ ID No:16 (antibody, listed as Homo Sapiens, V domains shown)
VH: EVQLVESGGVLVQPGGSLRLSCAASGFTFSSYIMTWVRQAPGKGLEWVSGISGSGGGTYYADSMKGRFTISRDNSKNTLYLQMNSLRVEDTAVYYCAKDRLGPITLVRGGYYYGMDVWGQGTTVTVSS
VL: DIQMTQSPSSLSASVGDRVTITCRASQSISDYLNWYQQKPGKAPKFLIYAASSLQSGVPSRFSGSGSGTDFTLTVSSLQPEDFATYYCQQSYSTPRTFGQGTRVEIK
modifications: IgG4-PE constant region
B2: 10A07 (hybridoma): murine/human chimeric anti-hOX40L antibody purified from hybridoma supernatant; VH SEQ ID No:2, VL SEQ ID No:16 (antibody, listed as Homo Sapiens, V domains shown)
VH: B1 VH
VL: B1 VL
B3: 9H04 (hybridoma): murine/human chimeric anti-hOX40L antibody from hybridoma; VH SEQ ID No:66, VL SEQ ID No:80 (antibody, listed as Homo Sapiens, V domains shown)
VH: QVQLVESGGGLVKPGGSLRLSCAASRFTLSDYYMTWIRQAPGKGLEWVSYISSSGNTIYYADSVKGRFTISRDNAKNSLYLQMNSLRAEDTAVYYCARDLSGSYWDYYYGMDVWGQGTTVTVSS
VL: AIQLTQSPSSLSTSVGDRVTIACRASQGINNALAWYQQKPGKAPKLLIYDASSLESGVPSRFSGSGSGTDFTLTISSLQPEDFATYYCQQFNSYPRTFGQGTKVEIK
B4: 2D10 (hybridoma): murine/human chimeric anti-hOX40L antibody purified from hybridoma supernatant; VH SEQ ID No:34, VL SEQ ID No:48 (antibody, listed as Homo Sapiens, V domains shown)
VH: EVQLVESGGGLVQPGGSLRLSCAASGFTFSNYAMNWVRQAPGKGLEWVSTISGSGGATRYADSVKGRFTISRDNSRNTVYLQMNSLRVEDTAVFYCTKDRLIMATVRGPYYYGMDVWGQGTTVTVSS
VL: DIQMTQSPSSLSASVGDRVTITCRASQSISSYLNWYQQKPGKAPNLLIYAASSLQSGVPSRFSGSGSETDFTLTISSLQPEDFATYYCQQSHSVSFTFGPGTKVDIK

What was measured:
[1] = biological target: Rhesus monkey OX40L; experiment: Surface plasmon resonance, apparent affinity to rhesus OX40L; format: binding, Rhesus (Macaca mulatta); conditions: SPR, 25° C., OX40L at 256 nM; CNROR = Cannot resolve off-rate
Experimental: (§1) SPR analysis was carried out using the ProteOn™ XPR36 Array System (BioRad). Anti-mouse IgG (GE Healthcare BR-1008-38) was immobilised on a GLM biosensor surface using amine coupling, the surface was then blocked using 1 M ethanolamine. Test antibodies were captured on this surface and recombinant hOX40L (human and rhesus) were used at a single concentration of 256 nM, binding sensorgrams were double referenced using a buffer injection (i.e. 0 nM) to remove baseline drift and injection artefacts. Apparent affinities for the OX40L-antibody interaction were determined using the 1:1 model inherent to the ProteOn XPR36 analysis software. The assay was run using HBS-EP (Teknova) as running buffer and carried out at 25° C.

[2] = tested on: CD3 primed primary human T lymphocytes; experiment: Effect of anti-OX40L antibodies on CD3 primed primary human T lymphocytes (IFN-γ release); format: cell-based; conditions: 10 μg/mL, 5 days, four independent donors; versus human IgG4PE isotype control
Experimental: In order to determine whether anti-OX40L had the ability to induce T-cell responses in the absence of OX40L, the assay below was performed using method adapted from Wang et al., Hybridoma (Larchmt)., 2009 Aug.; 28(4):269-76, in which an agonist anti-OX40L antibody was described.
A mouse anti-human CD3 antibody (Becton Dickinson) was diluted to 0.5 μg/mL in sterile PBS and 50 μL/well added to a 96 well high binding sterile plate and incubated overnight at 4° C.
Following overnight incubation, the plate was washed three times with 100 μL of sterile PBS.
T-cells (CD3 positive) were isolated from PBMC derived from leukoreduction system chambers (NHSBT) as described in Example 3. Following isolation, the cells were added to wells in 100 μL to achieve a final concentration of 1×10^5 cells/well.
Test antibodies were diluted in RPMI+10% FBS and 50 μL or 100 μL/well added to cell plate to achieve a final assay concentration of 10 μg/mL. In some cases, a mouse anti-human CD28 antibody (Becton Dickinson) was also added to wells at a final concentration of 1 μg/ml
The assay was incubated for 5 days. After 5 days, harvest supernatants and IFN-γ levels in supernatant were determined as described in Example 5.

[3] = biological target: T2, recombinant hOX40L (Homo sapiens, UniProt P23510); experiment: Surface plasmon resonance, apparent affinity to human OX40L; format: binding; conditions: SPR, 25° C., OX40L at 256 nM; CNROR = Cannot resolve off-rate
T2 construct: cDNA encoding the extracellular domain of human OX40L was cloned into a pREP4 expression plasmid; made in house; host or cells: FreeStyle CHO-S, transient expression
Experimental: as §1

[4] = tested on: allogeneic PBMC/PBMC MLR; experiment: Allogeneic PBMC/PBMC Mixed Lymphocyte Reaction (IFN-γ release); format: cell-based, human; conditions: compared to the isotype control; one valid experiment
Experimental: PBMCs are isolated from leukoreduction system chambers (NHSBT) using Ficoll-Paque plus (GE Healthcare) density gradient centrifugation. PBMC are pre-incubated with mitomycin C (Sigma) at 10 μg/mL in PBS for one hour at 37° C. Cells are then washed 3 times in PBS centrifuging at 300×g for 3 minutes, aspirating the supernatant after each wash. Allogeneic PBMC (not treated with mitomycin C) are added to a 96-well plate in RPMI supplemented with 10% v/v FBS at a concentration of 2×10^6/ml, 50 μL/well. Anti-OX40L antibodies are diluted in culture media and added to 96 well plate containing PBMC (not mitomycin C treated) at 50 μL/well. Mitomycin C treated PBMC are then added to allogeneic PBMC (not treated with mitomycin C) in 96-well plate at a final cell ratio in range of 1:1 to 4:1 mitomycin C treated to non mitomycin C based on number of cells/well. The cells are incubated for five days at 37° C./5% CO2. After five days TNF-α, IFN-γ, and IL-2 are measured by duoset ELISA (R&D Systems) according to manufacturer's recommendations. Proliferation is measured by CFSE dilution according to manufacturer's recommendations.
PBMCs were isolated from leukoreduction system chambers (NHSBT) using Ficoll-Paque plus (GE Healthcare) density gradient centrifugation. […] After five days, IFN-γ was measured by duoset ELISA (R&D Systems) according to manufacturer's recommendations. […]

[5] = biological target: T1, CHO-S expressed hOX40L; experiment: FACS binding to CHO-S expressed hOX40L; conditions: binding to hOX40L expressed on CHO-S cells; YES
Experimental: CHO-S cells expressing hOX40L or untransfected CHO-S cells, diluted in FACS buffer (PBS+1% w/v BSA+0.1% w/v NaN3) were distributed to a 96 well V-bottom plate (Greiner) at a density of 1×10^5 cells per well. Cells were washed with 150 μL of PBS and centrifuged at 300×g for 3 min. Supernatant was aspirated and 150 μL of PBS added. This wash step was repeated.
25 μL of hybridoma supernatant or purified antibody from hybridoma supernatant diluted in FACS buffer was added to the washed cells and incubated for 10-15 minutes. Reference Antibody or mouse IgG1 control antibody (Sigma) were diluted in FACS buffer to 20 μg/mL and 25 μL added to cells. 25 μL of human OX40R Fc (in-house) diluted to 1000 ng/mL in FACS buffer were then added to wells. Cells were incubated at 4° C. for 30 minutes.
Cells were washed twice with 150 μL of PBS centrifuging after each wash step and aspirating supernatant (centrifuged at 300×g for 3 minutes).
To detect antibody and receptor binding, 50 μL of Goat anti-human IgG-PE (Jackson ImmunoResearch) and APC anti-mouse IgG (Jackson ImmunoResearch) diluted 1 in 500 in FACS buffer was added to the cells. Cells were incubated 30 minutes at 4° C. in the dark.
To fix cells 100 μL 2% v/v paraformaldehyde was added and cells incubated for 30 minutes at 4° C., cells were pelleted by centrifugation 300×g and the plates and resuspended in 50 μL of FACS buffer. PE and APC signal intensity (geomean) was measured by flow cytometry using a BD FACS Array instrument.
% of control binding was calculated using geomean fluorescence as described in equation 1 where total binding was defined as reference antibody at 10 μg/mL and non-specific binding as mouse IgG1 antibody at 10 μg/mL. % receptor binding was calculated using Equation 3.
Binding of antibodies purified from hybridoma supernatant was carried out as described herein.

Rhesus monkey OX40L, sequence (as listed by the source): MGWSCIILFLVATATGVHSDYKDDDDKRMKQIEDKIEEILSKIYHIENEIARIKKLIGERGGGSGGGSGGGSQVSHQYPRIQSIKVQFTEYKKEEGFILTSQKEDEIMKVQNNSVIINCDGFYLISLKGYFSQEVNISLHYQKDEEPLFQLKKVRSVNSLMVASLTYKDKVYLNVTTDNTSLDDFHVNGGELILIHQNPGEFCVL
T2 sequence (P23510 with tags, fused parts or gaps): as the sequence (as listed by the source) above, with Q77R, E95K counted along it

| Molecule | Apparent Affinity RhsOX40L (nM) [1] | IFN-γ release from CD3 primed T-cells in the absence of OX40L [2] | Apparent Affinity hOX40L (nM) [3] | IFN-γ release in PBMC/PBMC MLR [4] | FACS Binding [5] |
| --- | --- | --- | --- | --- | --- |
| B1 | CNROR | no effect | CNROR | inhibited IFN-γ release |  |
| B2 | CNROR |  | CNROR |  | YES |
| B3 |  |  |  |  | YES |
| B4 | CNROR |  | CNROR |  | YES |
